Test results reported in patent US20210032313A1 (Daiichi Sankyo, published 2021).
Where a chain is given by its changes, count along the chain named.

T1: human KLK5 (human, UniProt Q9Y337 67-293)
T1 sequence: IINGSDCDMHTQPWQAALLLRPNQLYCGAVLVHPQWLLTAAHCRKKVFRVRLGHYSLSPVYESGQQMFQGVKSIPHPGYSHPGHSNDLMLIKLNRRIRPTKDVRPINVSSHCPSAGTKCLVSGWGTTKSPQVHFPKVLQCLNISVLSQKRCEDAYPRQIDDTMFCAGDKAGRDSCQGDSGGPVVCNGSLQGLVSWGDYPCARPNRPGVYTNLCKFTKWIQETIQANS

T2: human KLK14 (human, UniProt Q9P0G3 25-251)
T2 sequence: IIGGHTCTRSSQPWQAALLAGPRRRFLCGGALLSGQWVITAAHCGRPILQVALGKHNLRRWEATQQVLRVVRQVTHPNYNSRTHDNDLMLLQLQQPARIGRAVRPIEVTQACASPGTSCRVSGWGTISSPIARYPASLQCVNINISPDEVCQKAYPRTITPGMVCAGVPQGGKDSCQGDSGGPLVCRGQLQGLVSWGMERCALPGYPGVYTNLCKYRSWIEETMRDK

B1: KLK5/KLK14 inhibitory peptide K51069 (peptide)
chain: GPQFGLFSKYRTPNCSQVVETYCNRDYDPVCGSDMSTYANECTLCMKIREGGHNIKIIRNGPCGG
notes: SPINK2 mutant peptide made in E. coli
B2: KLK5/KLK14 inhibitory peptide K50015 (peptide)
chain: B1 chain with S16Y, Q17D, V18T, V19T, E20T, T21H, N24S, D26E
notes: as for B1

Key:
human KLK5 = target: T1, human KLK5; assay: cell-based or functional assay
human KLK7 = human KLK7 (human, UniProt P49862 30-253); assay: cell-based or functional assay
human KLK14 = target: T2, human KLK14; assay: cell-based or functional assay
KLK4 = target: T3, KLK4 (human, UniProt Q9Y5K2); assay: fluorogenic peptide substrate cleavage, 1 µM inhibitor
T3 construct: commercial enzyme (R&D Systems, 1719-SE); 1 µg/mL in the assay; substrate Boc-Val-Pro-Arg-AMC 100 µM; also called Human KLK4; hKLK4
Experimental: FIG. 3F includes graphs to evaluate the cross-reactivity of each inhibitory peptide with proteases, using the degradation of a peptide substrate as an index. For evaluating the Human KLK1 inhibitory activity, hKLK1 (R&D Systems, Inc., 2337-SE) with a final concentration of 0.1 μg/mL and a substrate peptide Pro-Phe-Arg-MCA (PEPTIDE […], INC., 3096-v) with a final concentration of 100 μM were used. For evaluating the Human KLK2 inhibitory activity, hKLK2 (R&D Systems, Inc., 4104-SE) with a final concentration of 2 μg/mL and a substrate peptide Pro-Phe-Arg-MCA (PEPTIDE […], INC., 3096-v) with a final concentration of 100 μM were used. For evaluating the Human KLK4 inhibitory activity, hKLK4 (R&D Systems, Inc., 1719-SE) with a final concentration of 1 μg/mL and a substrate peptide Boc-Val-Pro-Arg-AMC (R&D Systems, Inc., ES011) with a final concentration of 100 μM were used.
The specificities for other proteases were evaluated using the degradation of a substrate peptide as an index. As in the method described in (3-1), 25 μL each of a protease and a sample diluted with an assay buffer were mixed (to a final concentration of sample of 1 μM), followed by a reaction at 37° C. for 20 minutes. Thereafter, 50 μL of a substrate diluted with an assay buffer was added thereto, and the fluorescence signal was measured using Enspire (PerkinElmer). An assay buffer (50 mM Tris, 150 mM NaCl, pH 8.0) was used for the evaluation of the protease activity, and a PROTEOSAVE® SS96F black plate (Sumitomo Bakelite Co., Ltd.) was used for the reaction and the measurement. The combinations of the protease and the substrate used for the evaluation of the specificity were as follows.

human KLK7, sequence (P49862 30-253): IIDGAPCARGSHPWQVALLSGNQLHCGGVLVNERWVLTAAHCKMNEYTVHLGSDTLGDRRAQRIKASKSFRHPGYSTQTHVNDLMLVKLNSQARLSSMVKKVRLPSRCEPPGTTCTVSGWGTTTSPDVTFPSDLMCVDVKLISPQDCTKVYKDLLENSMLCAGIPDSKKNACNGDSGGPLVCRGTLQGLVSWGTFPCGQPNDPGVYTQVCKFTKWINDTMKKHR
T3 sequence (Q9Y5K2 31-254 limits assumed): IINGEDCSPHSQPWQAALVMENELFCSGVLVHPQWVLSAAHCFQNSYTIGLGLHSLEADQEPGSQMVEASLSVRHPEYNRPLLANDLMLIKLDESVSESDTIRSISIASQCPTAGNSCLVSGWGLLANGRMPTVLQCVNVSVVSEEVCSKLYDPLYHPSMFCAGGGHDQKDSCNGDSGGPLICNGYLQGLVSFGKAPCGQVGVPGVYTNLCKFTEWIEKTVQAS

Binder	IC50(nM) for hKLK5 (human KLK5)	IC50(nM) for hKLK7 (human KLK7)	IC50(nM) for hKLK14 (human KLK14)	binding result (KLK4)
B1	6.8 nM	> 1000 nM	72 nM	binds
B2	6.8 nM	> 1000 nM	17 nM	binds
